Results reported in patent US20230057904A1 (Chugai, published 2023).

Columns and labels:
ECM [1] = experiment: ECM binding assay, ECL reaction
ECM [2] = experiment: ECM binding assay, ECL reaction, value divided by that of MRA
human CLDN3 [3] = biological target: T1, human CLDN3 (human, UniProt O15551 1-220); experiment: flow cytometry on hCLDN3/BaF (Ba/F3 transfectant), 15 micro g/ml antibody, Alexa Fluor 488 anti-human IgG; histogram against KLH/TR01
T1 construct: also called hCLDN3; hCLDN3/BaF
T1 sequence: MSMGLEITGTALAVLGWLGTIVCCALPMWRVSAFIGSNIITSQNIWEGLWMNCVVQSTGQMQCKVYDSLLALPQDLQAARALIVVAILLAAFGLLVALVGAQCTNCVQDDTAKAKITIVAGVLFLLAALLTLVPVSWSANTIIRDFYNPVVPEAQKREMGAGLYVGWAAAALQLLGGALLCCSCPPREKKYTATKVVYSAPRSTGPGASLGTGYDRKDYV
Method: (§1) Amino acid sequence are highly conserved among CLDN3, CLDN4, CLDN6 and CLDN9. Thus we examined CLDN6 binding specificity by FACS analysis. hCLDN6/BaF, hCLDN3/BaF, hCLDN4/BaF, and hCLDN9/BaF were incubated with CS2201, CS2961, AH05/TR01 and 6PHU3/TR01 at 15 micro g/ml. KLH/TR01 generated in Example 2-3 was used as a staining control. Binding of each antibody was detected with Alexa Fluor 488-conjugated anti human IgG (Invitrogen). Dead cells were separated by eFlour 780 (Invitrogen) staining.

human CLDN4 = biological target: T2, human CLDN4 (human, UniProt O14493 1-209); experiment: flow cytometry on hCLDN4/BaF (Ba/F3 transfectant), 15 micro g/ml antibody, Alexa Fluor 488 anti-human IgG; histogram against KLH/TR01
T2 construct: also called hCLDN4; hCLDN4/BaF
T2 sequence: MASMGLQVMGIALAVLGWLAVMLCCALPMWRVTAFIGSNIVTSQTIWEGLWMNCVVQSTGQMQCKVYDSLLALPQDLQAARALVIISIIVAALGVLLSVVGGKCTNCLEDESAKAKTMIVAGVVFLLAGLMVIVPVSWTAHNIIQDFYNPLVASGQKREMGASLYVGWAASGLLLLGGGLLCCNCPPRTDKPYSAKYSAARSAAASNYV
From the text: FIG. 35-1. Binding activity of anti-CLDN6/CD3 bispecific antibodies (CS2201, CS2961, AH05/TR01, and 6PHU3/TR01) to human CLDN family proteins (CLDN3, CLDN4, CLDN6, and CLDN9). Binding activity of anti-CLDN6/CD3 bispecific antibodies to BaF3 transfectants (hCLDN6/BaF, hCLDN3/BaF, hCLDN4/BaF, and hCLDN9/BaF) was examined by flow cytometer in a concentration of 15 micro g/ml, and plotted as histogram. KLH/TR01 was used as a negative control. The specificity of CS2961 to human CLDN6 was highest among the tested antibodies.
as §1

human CLDN3 [4] = biological target: T1, human CLDN3; experiment: flow cytometry, FreeStyle 293-F transfectants expressing human CLDN3, anti-human IgG Alexa Fluor 647; MFI
Method: (§2) Antibodies were mixed with FreeStyle™ 293-F cells transiently expressed human and mouse CLDN3, 4, 6, and 9 at final concentration of 10 micro g/mL. After 1 hour of incubation, cells were washed by 0.1% BSA containing D-PBS(−), and incubated in 5 micro g/mL of either Goat anti-Human IgG (H+L) Cross-Adsorbed Secondary Antibody, Alexa Fluor 647 (Invitrogen, A21445) or Goat anti-Mouse IgG (H+L) Highly Cross-Adsorbed Secondary Antibody, Alexa Fluor 647 (Invitrogen, A21236), for 1 hour. Cells were then washed with 0.1% BSA containing D-PBS(−), resuspended in 5 micro L of 0.1% BSA containing D-PBS(−), and analyzed by flow cytometer (iQue Screener, intellicyte).

mouse CLDN3 = biological target: T3, mouse CLDN3 (mouse, UniProt Q9Z0G9 1-219); experiment: flow cytometry, FreeStyle 293-F transfectants expressing mouse CLDN3, anti-human IgG Alexa Fluor 647; MFI
T3 construct: also called mCLDN3; mCLDN3/FS293
T3 sequence: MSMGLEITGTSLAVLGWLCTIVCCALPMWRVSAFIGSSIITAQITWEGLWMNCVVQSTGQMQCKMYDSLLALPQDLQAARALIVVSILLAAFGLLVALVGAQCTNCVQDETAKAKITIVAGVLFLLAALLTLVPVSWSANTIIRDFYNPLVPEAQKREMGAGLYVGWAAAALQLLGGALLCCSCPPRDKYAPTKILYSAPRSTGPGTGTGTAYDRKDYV
Method: as §2

mouse CLDN9 = biological target: T4, mouse CLDN9 (mouse, UniProt Q9Z0S7 1-217); experiment: flow cytometry, FreeStyle 293-F transfectants expressing mouse CLDN9, anti-human IgG Alexa Fluor 647; MFI
T4 construct: also called mCLDN9; mCLDN9/FS293
T4 sequence: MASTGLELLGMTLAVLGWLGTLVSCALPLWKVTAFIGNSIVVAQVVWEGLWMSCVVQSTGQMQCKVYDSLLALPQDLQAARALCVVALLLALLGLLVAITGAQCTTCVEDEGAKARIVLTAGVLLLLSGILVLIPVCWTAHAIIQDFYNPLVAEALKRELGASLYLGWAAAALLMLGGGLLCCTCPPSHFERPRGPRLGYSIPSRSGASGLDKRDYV
Method: as §2

mouse CLDN6 = biological target: T5, mouse CLDN6 (mouse, UniProt Q9Z262 1-219); experiment: flow cytometry, FreeStyle 293-F transfectants expressing mouse CLDN6, 10 micro g/mL antibody, anti-human IgG Alexa Fluor 647; MFI
T5 construct: also called mCLDN6; mCLDN6/FS293
T5 chain: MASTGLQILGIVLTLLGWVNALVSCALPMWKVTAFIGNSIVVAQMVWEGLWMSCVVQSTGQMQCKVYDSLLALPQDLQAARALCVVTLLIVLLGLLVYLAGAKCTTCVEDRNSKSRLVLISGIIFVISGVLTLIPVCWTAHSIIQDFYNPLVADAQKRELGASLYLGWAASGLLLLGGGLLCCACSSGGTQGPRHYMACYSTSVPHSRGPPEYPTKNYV
Method: as §2

MRA (antibody)
Luminescence (ECM [1]): 13000
Luminescence ratio vs MRA (ECM [2]): 1 fold

B1: bivalent IgG antibody 25H0021/20L0072 (antibody, V domains shown)
VH: QVQLVESGGGVVQPGRSLRLSCAASGFTFSSLTMSWVRQAPGQGLEWMGTISSGGGRTYYPDSVKGRFTISRDNSKNTLYLQMNSLRAEDTAVYYCARGDYRYDGFAYWGQGTLVTVSS
VL: DIQMTQSPSSLSASVGDRVTITCRASYNIDSYLAWYQQKPGKAPKLLIYASTLLVDGVPSRFSGSRSGTDFTLTISSLQPEDFATYYCQHYYSIPYTFGQGTKLEIK
Luminescence (ECM [1]): 32900
Luminescence ratio vs MRA (ECM [2]): 2.52 fold

B2: bivalent IgG antibody 25H0562/20L0072 (antibody, V domains shown)
VH: QVQLVESGGGVVQPGRSLRLSCAASGFTFSSYTMSWVRQAPGQGLEWMGTISSGGGRTYYPDSVKGRFTISRDNSKNTLYLQMNSLRAEDTAVYYCARGDYRYDGFAMWGQGTLVTVSS
VL: DIQMTQSPSSLSASVGDRVTITCRASYNIDSYLAWYQQKPGKAPKLLIYASTLLVDGVPSRFSGSRSGTDFTLTISSLQPEDFATYYCQHYYSIPYTFGQGTKLEIK
Luminescence (ECM [1]): 32600
Luminescence ratio vs MRA (ECM [2]): 2.5 fold

B3: bivalent IgG antibody 25H0322/20L0072 (antibody, V domains shown)
VH: QVQLVESGGGVVQPGRSLRLSCAASGFTFSSYTMSWVRQAPGQGLEWMGTISSGGGRTYYPFSVKGRFTISRDNSKNTLYLQMNSLRAEDTAVYYCARGDYRYDGFAYWGQGTLVTVSS
VL: DIQMTQSPSSLSASVGDRVTITCRASYNIDSYLAWYQQKPGKAPKLLIYASTLLVDGVPSRFSGSRSGTDFTLTISSLQPEDFATYYCQHYYSIPYTFGQGTKLEIK
Luminescence (ECM [1]): 70600
Luminescence ratio vs MRA (ECM [2]): 5.41 fold

B4: bivalent IgG antibody 25H0176/20L0072 (antibody, V domains shown)
VH: QVQLVESGGGVVQPGRSLRLSCAASGFTFSSYTMSWVRQAPGQGLEWMGTISSKGGRTYYPDSVKGRFTISRDNSKNTLYLQMNSLRAEDTAVYYCARGDYRYDGFAYWGQGTLVTVSS
VL: DIQMTQSPSSLSASVGDRVTITCRASYNIDSYLAWYQQKPGKAPKLLIYASTLLVDGVPSRFSGSRSGTDFTLTISSLQPEDFATYYCQHYYSIPYTFGQGTKLEIK
Luminescence (ECM [1]): 77000
Luminescence ratio vs MRA (ECM [2]): 5.91 fold

B5: CS2201 (bispecific antibody, V domains shown)
VH 1: QVQLVESGGGVVQPGRSLRLSCAASGFTFSSYTMSWVRQAPGQGLEWMGTISSGGGRTYYPDSVKGRFTISRDNSKNTLYLQMNSLRAEDTAVYYCARGDYRYDGFAYWGQGTLVTVSS
VL 1: DIQMTQSPSSLSASVGDRVTITCRASYNIDSYLAWYQQKPGKAPKLLIYYSTLLVDGVPSRFSGSRSGTDFTLTISSLQPEDFATYYCQHYYSIPYTFGQGTKLEIK
VH 2: QVQLVESGGGVVQPGGSLRLSCAASGFTFSNAWMHWVRQAPGKGLEWVAQIKDKSQNYATYVAESVKGRFTISRADSKNSIYLQMNSLKTEDTAVYYCRYVHYAAGYGVDIWGQGTTVTVSS
VL 2: DIVMTQSPLSLPVTPGEPASISCRSSQPLVHSNRNTYLHWYQQKPGQAPRLLIYKVSNRFSGVPDRFSGSGSGTDFTLKISRVEAEDVGVYYCGQGTQVPYTFGQGTKLEIK
notes: Fab arm exchange, silent Fc; also called 25H/20L0532//TR01
binding result (human CLDN3 [3]): binds
binding result (human CLDN4): binds

B6: bivalent IgG antibody 25H0042/20L0072 (antibody, V domains shown)
VH: QVQLVESGGGVVQPGRSLRLSCAASGFTFSSYVMSWVRQAPGQGLEWMGTISSGGGRTYYPDSVKGRFTISRDNSKNTLYLQMNSLRAEDTAVYYCARGDYRYDGFAYWGQGTLVTVSS
VL: DIQMTQSPSSLSASVGDRVTITCRASYNIDSYLAWYQQKPGKAPKLLIYASTLLVDGVPSRFSGSRSGTDFTLTISSLQPEDFATYYCQHYYSIPYTFGQGTKLEIK
Luminescence (ECM [1]): 40400
Luminescence ratio vs MRA (ECM [2]): 3.1 fold

B7: bivalent IgG antibody 25H0024/20L0072 (antibody, V domains shown)
VH: QVQLVESGGGVVQPGRSLRLSCAASGFTFSSVTMSWVRQAPGQGLEWMGTISSGGGRTYYPDSVKGRFTISRDNSKNTLYLQMNSLRAEDTAVYYCARGDYRYDGFAYWGQGTLVTVSS
VL: DIQMTQSPSSLSASVGDRVTITCRASYNIDSYLAWYQQKPGKAPKLLIYASTLLVDGVPSRFSGSRSGTDFTLTISSLQPEDFATYYCQHYYSIPYTFGQGTKLEIK
Luminescence (ECM [1]): 29600
Luminescence ratio vs MRA (ECM [2]): 2.27 fold

B8: AH05/TR01 (bispecific antibody, V domains shown)
VH 1: EVQVEQSGPELVKPGASVKISCKTSGYTFTEYTMHWVKQSHGKSLEWIGGINPNNGNTRYNQKFKGKATLTVDKSSSTAYMELRTLTSEDSAVYYCARCGDFDLFFFFAYWGQGTLVTVSA
VL 1: DIVMTQSQKFMSTSVGDRVSVTCKASQNVGSNVAWYQQKPGQSPEGLISSASSRFSGVPDRFTGSGSGTDFTLTITNVQSEDLAEYFCQQYNSYPFTFGSGTELEIK
VH 2: QVQLVESGGGVVQPGGSLRLSCAASGFTFSNAWMHWVRQAPGKGLEWVAQIKDKSQNYATYVAESVKGRFTISRADSKNSIYLQMNSLKTEDTAVYYCRYVHYAAGYGVDIWGQGTTVTVSS
VL 2: DIVMTQSPLSLPVTPGEPASISCRSSQPLVHSNRNTYLHWYQQKPGQAPRLLIYKVSNRFSGVPDRFSGSGSGTDFTLKISRVEAEDVGVYYCGQGTQVPYTFGQGTKLEIK
notes: IgG format by Fab arm exchange, silent Fc; also called anti-CLDN6/CD3 bispecific antibody AH05/TR01
binding result (human CLDN3 [4]): no binding (tested: 10 micro g/mL)
binding result (mouse CLDN3): no binding (tested: 10 micro g/mL)
binding result (mouse CLDN9): no binding (tested: 10 micro g/mL)
binding result (mouse CLDN6): binds

B9: AE3-20/TR01 (bispecific antibody, V domains shown)
VH 1: EVKLVESGGGLVKPGGSLKLSCAASGFTFNSYTMSWVRQTPAKRLEWVVTISSGGGRTYYPDSVKGRFTISRDNARNTLYLQMSSLRSEDTAMYYCIRGDYRYDGFAYWGQGTLVTVST
VL 1: DIQMTQSPASLSASVGETVTITCRASENIDSYLAWYQQKQGKSPQLLVYASTLLVDGVPSRFSGSRSGTQFSLKINSLQSEDVARYYCQHYYSIPYTFGSGTKLEIK
VH 2: QVQLVESGGGVVQPGGSLRLSCAASGFTFSNAWMHWVRQAPGKGLEWVAQIKDKSQNYATYVAESVKGRFTISRADSKNSIYLQMNSLKTEDTAVYYCRYVHYAAGYGVDIWGQGTTVTVSS
VL 2: DIVMTQSPLSLPVTPGEPASISCRSSQPLVHSNRNTYLHWYQQKPGQAPRLLIYKVSNRFSGVPDRFSGSGSGTDFTLKISRVEAEDVGVYYCGQGTQVPYTFGQGTKLEIK
notes: also called anti-CLDN6/CD3 bispecific antibody AE3-20/TR01; AE3.20H/AE3.20L//TR01
binding result (human CLDN3 [4]): no binding (tested: 10 micro g/mL)
binding result (mouse CLDN3): no binding (tested: 10 micro g/mL)
